{
  "source": "patent US20090111104A1",
  "about": "“Method for Monitoring Hydrolytic Activity” (Fluorotechnics Pty Limited, priority 2005, published 2009)",
  "molecular_target": "T1, BSA (Bos taurus, UniProt P02769)",
  "T1 construct": "purchased Sigma-Aldrich A3059",
  "T1 sequence (P02769 25-607)": "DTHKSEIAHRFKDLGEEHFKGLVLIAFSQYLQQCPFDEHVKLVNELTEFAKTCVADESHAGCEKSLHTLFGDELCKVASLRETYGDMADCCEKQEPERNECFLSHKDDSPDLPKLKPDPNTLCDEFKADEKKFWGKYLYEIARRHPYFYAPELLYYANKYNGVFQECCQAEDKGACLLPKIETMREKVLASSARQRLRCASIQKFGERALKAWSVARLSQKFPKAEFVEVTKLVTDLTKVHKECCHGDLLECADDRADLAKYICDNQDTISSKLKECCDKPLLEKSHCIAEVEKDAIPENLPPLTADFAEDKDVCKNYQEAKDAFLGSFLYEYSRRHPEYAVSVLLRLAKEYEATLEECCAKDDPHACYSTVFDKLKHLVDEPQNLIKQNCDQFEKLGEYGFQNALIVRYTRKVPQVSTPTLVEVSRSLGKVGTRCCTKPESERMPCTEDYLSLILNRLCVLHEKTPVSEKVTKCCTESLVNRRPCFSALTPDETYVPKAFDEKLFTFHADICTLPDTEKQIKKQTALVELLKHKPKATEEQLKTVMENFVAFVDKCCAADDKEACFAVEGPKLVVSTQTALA",
  "test": "Real-time monitoring of trypsin digestion of BSA using epicocconone (FluoStar assay)",
  "assay_type": "biochemical, bovine",
  "conditions": "epicocconone reporter dye, bicine pH 8.4, 37° C., trypsin 1:40, reduced and alkylated BSA",
  "protocol": "A.3.1 Preparation of BSA for digestion • 1 Trypsin digestion was carried out in bicine buffer (ph 8.4). • 2 BSA was prepared in 10 mg/mL in 50 mM bicine buffer. • 3 One hundred microliter of the BSA sample was used for trypsin digestion.\nA.3.2 Reduction and Alkylation • 1 The 100 μL of BSA sample was reduced by adding 5 μL of DTT stock for 10 min at 80° C. • 2 The sample was alkylated by adding 4 μL of the iodoacetamide stock at room temperature for 45 min-1 hr. • 3 The remaining iodoacetamide of the sample was neutralized by adding 20 μL of the DTT at room temp for 45 min-1 hr.\nA.3.3 Real-Time Monitoring of Trypsin Digestion Using Epicocconone (FluoStar Assay) • 1 The reduced and denatured BSA sample from 3.2 above was diluted 10-fold in 50 mM bicine buffer (25 μL+225 μL bicine buffer). BSA molar concentration was calculated to be approx. 4 μM. • 2 One hundred microliter of the sample (step 1) was prepared in duplicates and added to a microtiter plate. […] At this point in time, it required approximately 10 min to get appropriate FluoStar setting conditions. • 4 Trypsin (Sigma-Aldrich T6567), reconstituted in 1 mM HCl, was added at a ratio of 1:40. • 5 Fluorescence development was monitored in real time every 2 minutes up to 6 hours using FluoStar (Ex/Em=540/630±12). […]",
  "data": [
    {"molecule": "trypsin: Proteomics grade trypsin protease, Sigma-Aldrich T6567 (protein, UniProt P00761 9-231, looked up) Trypsin: IVGGYTCAANSIPYQVSLNSGSHFCGGSLINSQWVVSAAHCYKSRIQVRLGEHNIDVLEGNEQFINAAKIITHPNFNGNTLDNDIMLIKLSSPATLNSRVATVSLPRSCAAAGTECLISGWGNTKSSGSSYPSLLQCLKAPVLSDSSCKSSYPGQITGNMICVGFLEGGKDSCQGDSGGPVVCNGQLQGIVSWGYGCAQKNKPGVYTKVCNYVNWIQQTIAAN", "values": [
      {"measurement": "apparent first order rate constant", "result": 0.109, "unit": "min⁻¹"}
    ]}
  ]
}
